Reference: PMC12175908

Target: Paxillin N-domain (residues 1 to 311) (human) (UniProt P49023)
Test: NMR titration; 100 μM 15N-PXN N-domain, unlabeled FAT added (10 to 300 μM); 2D 1H-15N HSQC, decay of amide peak intensity per LD motif, fraction bound against total FAT; effective (relative) constants for single LD motifs; 100 mM potassium phosphate, 1 mM TCEP, 0.1 mM EDTA, pH 7.0, 10°C

Sequence of UniProt P49023 (P49023 other isoform, or with tags, fused parts or gaps): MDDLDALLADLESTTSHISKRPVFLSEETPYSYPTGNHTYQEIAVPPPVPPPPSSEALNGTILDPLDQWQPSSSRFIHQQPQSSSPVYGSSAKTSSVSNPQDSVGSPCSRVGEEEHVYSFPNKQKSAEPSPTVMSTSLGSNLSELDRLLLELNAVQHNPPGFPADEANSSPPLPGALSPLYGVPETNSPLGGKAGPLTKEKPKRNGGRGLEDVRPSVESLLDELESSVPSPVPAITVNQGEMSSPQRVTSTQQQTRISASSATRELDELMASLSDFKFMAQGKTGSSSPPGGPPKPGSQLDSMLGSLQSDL

How did the effective Kd of the LD1 motif turn out when “focal adhesion targeting (FAT) domain of focal adhesion kinase (domain or fragment)” was run?
Its effective Kd of the LD1 motif is 17 µM.

And the effective Kd of the LD2 motif?
Its effective Kd of the LD2 motif is 7000 µM.

What about the effective Kd of the LD4 motif of the same substance?
Its effective Kd of the LD4 motif is 13 µM.
